Test results reported in the supplement of paper PMC12042874.
± gives the uncertainty stated by the source.

Test: amyloid nucleation score (Sup35N fusion, yeast selection) (log enrichment); library NNK3; higher = more nucleation; inactive = no reads after selection
How it was run: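 Plasmid inserts were Illumina-sequenced at input and output from psi-negative yeast expressing Sup35N fused to peptides of 20 random codons. The yeast were induced with 100 μM copper sulfate for 24 hours and grown 7 days at 30°C on medium lacking adenine and uracil, and sequences with under 100 input reads were excluded. Nucleation score is the DiMSum log enrichment of output over input reads, centred on the mode score of non-aggregating sequences.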
In the case of LFQLHMVLSF, the amyloid nucleation score is reported as “inactive”.
In the case of YLTVCRGRNTEGYGWEVNS, the amyloid nucleation score is reported as “inactive”.
In the case of RGKNVAWWVTSSTKSYSAK, the amyloid nucleation score is reported as 0.304 ± 0.23.
In the case of VSIRTR, the amyloid nucleation score is reported as “inactive”.
For ISSNLLHAVWYSHEPGW, the amyloid nucleation score was 1.81 ± 0.061.
For CLYLAS, the amyloid nucleation score was “inactive”.
In the case of SFNGMSCLRNNLRWNFNRNA, the amyloid nucleation score is reported as “inactive”.
In the case of LVYNATYCSSMHHSGS, the amyloid nucleation score is reported as “inactive”.
YMSFIYGSKR showed an amyloid nucleation score of 1.78 ± 0.07.
In the case of YKLKLIKEFCIGIRC, the amyloid nucleation score is reported as “inactive”.
In the case of PRWETSYLIL, the amyloid nucleation score is reported as “inactive”.
For MAIFKLFVPFIFLIEFCYMV, the amyloid nucleation score was “inactive”.
For RVTGTCGFRRDGFESWRNTR, the amyloid nucleation score was “inactive”.
Work on VFICSAVTNNSWCERLDFSA yielded an amyloid nucleation score of 1.5 ± 0.14.
For TFAFYLTILMSMFDRYFTWP, the amyloid nucleation score was “inactive”.
With LFGQVVGVDFFNWWCFEMHK the amyloid nucleation score was “inactive”.
In the case of RRAAEKFFNEPTWERHLVSG, the amyloid nucleation score is reported as “inactive”.
For YSKYSYSCVDGMIW, the amyloid nucleation score was “inactive”.
In the case of YSVMSNHETIYYMSVS, the amyloid nucleation score is reported as “inactive”.
With MVVMRKSVETTYYWLILAIF the amyloid nucleation score was “inactive”.
FECYRSSLGQWVMLDVSIHW showed an amyloid nucleation score of -0.534 ± 0.87.
With FPYNGALSFCIWYRVASRVY the amyloid nucleation score was “inactive”.
With CYADPG the amyloid nucleation score was “inactive”.
In the case of SYGPRPYTHHSPHAAGMTLE, the amyloid nucleation score is reported as “inactive”.
For SAFKAKL, the amyloid nucleation score was “inactive”.
With DLVPVIHGIYWAG the amyloid nucleation score was “inactive”.
With HRLVFCQLTR the amyloid nucleation score was “inactive”.
For NLMWL, the amyloid nucleation score was “inactive”.
For FSHFMSSTYYCC, the amyloid nucleation score was 1.73 ± 0.12.
With GSRVN the amyloid nucleation score was -0.352 ± 0.36.
For DWHAIFTMFECNMQRGKSAR, the amyloid nucleation score was 0.113 ± 0.31.
With KRASMPVPGSSWLHQFKE the amyloid nucleation score was “inactive”.
KLMPVIVTFNRYFFGQVMEE gave an amyloid nucleation score of 1.2 ± 0.14.
With AYSFNSFRASGRHLWFTVCP the amyloid nucleation score was “inactive”.
In the case of QRMTNFLLGRVSV, the amyloid nucleation score is reported as “inactive”.
With AYVRLKRCWDTFWLRI the amyloid nucleation score was “inactive”.
AFCLQYVCYAKLMGNVNNTC gave an amyloid nucleation score of 1.75 ± 0.084.
In the case of HVFFMKTEEPCTPEY, the amyloid nucleation score is reported as “inactive”.
In the case of LYHPGALVHQQIDS, the amyloid nucleation score is reported as “inactive”.
With KCPRVDSA the amyloid nucleation score was “inactive”.
With VDHRGALVEKFMNNSIWTSF the amyloid nucleation score was 0.122 ± 0.98.
For PNDVRNAFFCPPPTKKPTVA, the amyloid nucleation score was “inactive”.
For SYHYHATILSWTYYVTVYFL, the amyloid nucleation score was “inactive”.
Work on HWSHNLQFIFFYSYVGLANE yielded an amyloid nucleation score of 1.96 ± 0.077.
For TPLESGLSI, the amyloid nucleation score was “inactive”.
For IICGSCPRR, the amyloid nucleation score was “inactive”.
With YNEHLQLAVWRYALTVGKVW the amyloid nucleation score was “inactive”.
In the case of WPKLVGCYRGSKGINGRVLY, the amyloid nucleation score is reported as “inactive”.
With PVLML the amyloid nucleation score was “inactive”.
With IKFVIIRITHSREKFSVPLS the amyloid nucleation score was “inactive”.
In the case of RAGTKLPLYL, the amyloid nucleation score is reported as “inactive”.
For VFVSLISSMTIFTCFVPECE, the amyloid nucleation score was 3.28 ± 0.069.
With MMNILILCVKGMHFGRHKYV the amyloid nucleation score was “inactive”.
With WLVFITPYLSLSCLSLINKI the amyloid nucleation score was “inactive”.
With RLGMWVFWCRL the amyloid nucleation score was “inactive”.
For DVANKIVSKGRS, the amyloid nucleation score was “inactive”.
In the case of PGSGIHNWMNCYRSLKE, the amyloid nucleation score is reported as “inactive”.
For LMSNHCGKYWRHFSWIMTVF, the amyloid nucleation score was “inactive”.
For SCMCYGTLLVLLYISYVMVE, the amyloid nucleation score was “inactive”.
With AWRCLGSYCMRLRVSIKSQ the amyloid nucleation score was “inactive”.
YINLVFQNCAVDGRSSKGYW showed an amyloid nucleation score of 2.67 ± 0.081.
With CRYSSYVPVGLYKKWGICWM the amyloid nucleation score was “inactive”.
In the case of FHSGMHCMKDFDCLPGFVGR, the amyloid nucleation score is reported as “inactive”.
In the case of VLFCRFSSWV, the amyloid nucleation score is reported as 0.739 ± 0.26.
For SKKSDF, the amyloid nucleation score was “inactive”.
Work on KNSLDALFYVTALFCTLSGD yielded an amyloid nucleation score of -0.122 ± 0.38.
In the case of MTPFIKNS, the amyloid nucleation score is reported as “inactive”.
With FCENRFTSFLKNVIIW the amyloid nucleation score was 0.398 ± 0.18.
YYCMFVGD gave an amyloid nucleation score of 1.24 ± 0.15.
With FFVNYHVGIFMSIYQIFVYV the amyloid nucleation score was “inactive”.
In the case of SPAQDQLAVRWVGVDRMMWW, the amyloid nucleation score is reported as -0.434 ± 0.86.
For INRDYSVIVSGSYHHSSLTE, the amyloid nucleation score was “inactive”.
For FTLKRLPGYSHRSLEWLPPY, the amyloid nucleation score was “inactive”.
In the case of QFIWRLLRDSTKNFTLLSYK, the amyloid nucleation score is reported as “inactive”.
For FYISREALLSIASRTLRARQ, the amyloid nucleation score was “inactive”.
With PCNFL the amyloid nucleation score was “inactive”.
With LRVYLLAWL the amyloid nucleation score was 0.781 ± 0.16.
In the case of HWFRTGDMGVDFTVEACDWL, the amyloid nucleation score is reported as “inactive”.
With GIRLIECS the amyloid nucleation score was “inactive”.
For APWYVNWGMYNCEWGRGS, the amyloid nucleation score was “inactive”.
In the case of NEQVGDGLFCP, the amyloid nucleation score is reported as -0.057 ± 0.75.
With SLGISKSG the amyloid nucleation score was “inactive”.
